The record followed here is patent US20240368272A1 (UNIVERSITY OF BERN, published 2024).

Assay [1] has as its target T1, human KCNQ1 (expressed together with KCNE1 as a separate chain; IKs channel) (human, UniProt P51787 1-676).
T1 sequence: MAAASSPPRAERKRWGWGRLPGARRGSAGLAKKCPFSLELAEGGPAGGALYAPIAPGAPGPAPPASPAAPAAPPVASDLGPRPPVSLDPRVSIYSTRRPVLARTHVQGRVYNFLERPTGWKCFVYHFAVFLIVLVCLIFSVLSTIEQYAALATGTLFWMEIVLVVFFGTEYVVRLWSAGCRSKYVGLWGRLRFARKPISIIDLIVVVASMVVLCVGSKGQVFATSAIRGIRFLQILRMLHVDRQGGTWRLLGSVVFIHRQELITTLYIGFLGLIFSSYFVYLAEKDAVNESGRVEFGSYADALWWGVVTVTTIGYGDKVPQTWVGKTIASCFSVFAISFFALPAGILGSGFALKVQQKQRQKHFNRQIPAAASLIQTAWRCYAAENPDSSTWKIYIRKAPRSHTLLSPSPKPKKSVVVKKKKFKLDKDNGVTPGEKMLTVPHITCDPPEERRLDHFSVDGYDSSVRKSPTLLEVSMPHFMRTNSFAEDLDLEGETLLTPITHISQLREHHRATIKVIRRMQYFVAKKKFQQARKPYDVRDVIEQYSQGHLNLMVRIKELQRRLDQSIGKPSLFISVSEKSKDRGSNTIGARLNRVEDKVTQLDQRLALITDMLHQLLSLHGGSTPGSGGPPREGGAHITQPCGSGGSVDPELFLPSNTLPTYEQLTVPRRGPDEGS
The assay is described as follows: cell-based or functional assay.

The target of assay [2] is T2, KCNQ1 channel peptide (AEKDAVNESGRVEFGSYADA) (human).
T2 construct: Coupled to KLH for immunisation; the free peptide (2.12 kDa) was the analyte in SPR; also called KCNQ1 peptide; antigenic peptide
T2 peptide: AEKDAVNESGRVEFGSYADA
The assay is described as follows: SPR (Biacore 8K), antibody immobilised on CM5 chip, peptide as analyte, mean of triplicate. The protocol:
Antibody kinetics and affinity measurement: A Biacore 8K Surface Plasmon Resonance (SPR) instrument (GE Healthcare Life Sciences, ProteoGenix, France) equipped with a CM5 sensor chip was used to generate binding kinetic rate and affinity constants at room temperature. IgG2a 8-F11-D4 (10 μg/ml) was immobilized onto the CM5 chip by amide coupling, following manufacturer's protocol. The surface chemistry was activated using 1-Ethyl-3-(3-dimethylaminopropyl) carbodiimide hydrochloride (EDC) and sulfo-N-Hydroxysuccinimide (NHS) reagents prior to immobilization, while ethanolamine was used to deactivate remaining active esters. Samples were prepared in HBS-EP⁺ buffer composed of 10 mM HEPES (pH 7.4), 150 mM NaCl, 3 mM EDTA, 0.05% Surfactant P20. The antigenic peptide was suspended in 20 mM sodium acetate (pH 4.5) and glycine-HCl (pH 1.5) was used as regeneration buffer. […] This level was considered optimal based upon the calculation of the maximal response (Rₘₐₓ) of analyte (antigenic peptide) to ligand (IgG2a): Rₘₐₓ=(MWanalyte/MWligand)×RL×Sₘ, where MWanalyte and MWligand are the molecular weights of the peptide (analyte, 2.12 kDa) to the antibody (ligand, 180 kDa as determined by SDS-PAGE), respectively, RL is the target amount of ligand bound in RU, and Sₘ represents the stoichiometric ratio of the analyte/ligand interaction (Sₘ equals 1). A theoretical Rₘₐₓ of […] is achieved at 10′000 RU of ligand. […] Injections were performed in triplicate to assess for the assay's reproducibility. All data were processed and analyzed with Biacore 8K Evaluation Software.
On the technique in general: SPR reads the build-up and loss of mass on a sensor chip optically.

In assay [3] the target is T3, N-terminally biotinylated KCNQ1 peptide (Nterm-Biotin-(CH2O)4-AEKDAVNESGRVEFGSYADA-Cterm) (human, N-terminal Biotin-(CH2O)4-).
T3 construct: Immobilised on streptavidin biosensor tips for Octet BLI
T3 peptide: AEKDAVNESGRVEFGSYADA
The assay is described as follows: BLI (Octet RED96), biotinylated peptide on streptavidin tips, antibody in solution, 1:1 model, duplicate. The protocol:
(§1) FIG. 16. Kinetic measurements of mAb binding to 20aa KCNQ1 target sequence.
(§2) Binding kinetics of KCNQ1 peptide interactions with IgG2a 8-F11-D4 was monitored using Octet RED96 Bio-Layer Interferometry (Sartorius). All measurements were performed in duplicate at 25° C. in an assay-specific buffer containing 1× PBS pH 7.4, 1× kinetic buffer and 1% BSA using 96-well plates with orbital shake speed of 1,000 rpm. The binding curves were generated by first immobilizing 1 mM N-terminally biotinylated KCNQ1 peptide on streptavidin-coated biosensor tips for 2.5 min followed by a baseline equilibration step for 5 min. The biosensor tips were then submerged in wells containing […] mAbs for 5 min to monitor formation of the mAb-peptide complex, followed by antibody dissociation in the assay buffer for 5 minutes. A shift in the interference pattern of white light reflected from the surface of a biosensor tip caused by antibody binding/dissociation was monitored in real time. Antibody-peptide interactions were analyzed by a 1:1 binding model and the dissociation constants (KDs) were determined as ratios of dissociation (koff) and association (kon) binding rate constants derived using non-linear fitting model in GraphPad Prism.
On the technique in general: In BLI a coated tip is dipped into the sample, and binding shifts an interference pattern.

Assay [4] deals with T3, N-terminally biotinylated KCNQ1 peptide …. The assay is described as follows: bio-layer interferometry (Octet RED96), biotinylated KCNQ1 peptide on streptavidin tips, 1:1 model, mean of duplicate runs. Here is the method:
as §1, §2

B1: IgG2a 8-F11-D4 monoclonal antibody (antibody, V domains shown)
VH: EVKLVESGGGLVKPGGSLQLSCAASGFTFSNYAMSWVRQTPEKRLEWVASISGGGNTYYPDSVKGRFTISRDNARNILYLQMNSLRSEDTAMYYCVRATRDYFDYWGQGTTLTVSS
VL: DIVMSQSPSSLAVSVGEKVTMSCKSSQSLLNSRTRKSYLAWYQQKPGQSPKLLIYWASTRESGVPDRFTGSGSGTDFTLTISSVQAEDLAVYSCEQSYYLYTFGGGTKLEIK
notes: also called mouse monoclonal IgG2a 8-F11-D4; murine monoclonal anti-KCNQ1 antibody IgG2a 8-F11-D4
B1: in assay [1], the “half-maximal effective concentration (EC50) of APD90 reduction in hiPSC-CMCs” value amounted to 5.7 µg/mL; the “mean IKs step current at +70 mV, whole-cell patch clamp, CHO cells stably expressing human IKs channels, 30 µg/ml IgG” value is 1.6 fold; the “mean IKs tail current upon repolarization to -40 mV, whole-cell patch clamp, CHO cells stably expressing human IKs channels, 30 µg/ml IgG” value is 1.5 fold. For the same molecule, in assay [2], the affinity, expressed as Kd, was 9.02 nM; the koff (in general, the rate constant with which the complex falls apart) came out at 0.00082 s⁻¹; the on-rate (kon) (in general, a measure of how fast the partners come together) is 90900 M⁻¹ s⁻¹. For the same molecule, in assay [3], the Kd – broadly, the equilibrium constant for the complex coming apart – was about 4 nM. The molecule also had a Kd in assay [4] of 3.7 nM.

B2: recombinant murine IgG2a 8-F11-D4 antibody (antibody, V domains shown)
VH: B1 VH
VL: B1 VL
Regarding B2, in assay [1], the “IKs step current at +70 mV versus control, CHO cells stably expressing human IKs, 30 µg/ml recombinant antibody” value came to 1.6 fold and the “IKs tail current versus control, CHO cells stably expressing human IKs, 30 µg/ml recombinant antibody” value stood at 1.5 fold.
